Data on 3 substances can be found in article PMC6138654.

In the assay the target is αβ-tubulin (tubulin dimer; as free tubulin, Tau-induced microtubules or Taxol-stabilized microtubules) (lamb (purified from lamb brains)).

Tau F4 fragment labeled with MTSL (F4^MTSL), sequence (P10636 525-641): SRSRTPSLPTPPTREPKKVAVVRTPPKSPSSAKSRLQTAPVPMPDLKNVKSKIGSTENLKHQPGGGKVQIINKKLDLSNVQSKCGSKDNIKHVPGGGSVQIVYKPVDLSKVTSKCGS

Regarding “Tau F4 fragment C291S mutant labeled with MTSL on C322 (C322^MTSL) (from UniProt P10636-8 208-324) (domain or fragment)”, the k of MTSL label release (thiol-disulfide exchange) by EPR, h(−1)/h(0) against time; Tau-MTs (induced), 10 µM labeled protein, 1:2 with tubulin, 37 °C turned out to be 0.077 min⁻¹. The same measure, in the same setting: the value for “Tau F4 fragment C322S mutant labeled with MTSL on C291 (C291^MTSL) (from UniProt P10636-8 208-324) (domain or fragment)” was 0.127 min⁻¹. As to “Tau F4 fragment labeled with MTSL (F4^MTSL) (from UniProt P10636-8 208-324) (domain or fragment)”, the k of MTSL label release (thiol-disulfide exchange) by EPR, h(−1)/h(0) against time; Induced-MTs, 10 µM labeled protein, 1:2 with tubulin, 37 °C was determined as 0.217 min⁻¹ and the k of MTSL label release (thiol-disulfide exchange) by EPR, h(−1)/h(0) against time; Taxol-MTs, 10 µM labeled protein, 1:2 with tubulin, 37 °C worked out at 0.025 min⁻¹.
